Experimental data taken from patent US20130344085A1 (published 2013).
Where a chain is given by its changes, count along the chain named. Values belong to the binder of their own block, whether it stands above or below them.

How the values were obtained:
[1] = target: Human PCSK9 (Genbank EF692496) containing a histidine (His)8 C-terminal tag (UniProt Q8NBP7 31-692); assay: BIAcore SPR
biotinylated human PCSK9 = biotinylated human PCSK9 (UniProt Q8NBP7 31-692, biotinylated (sites not given)); assay: competition binding ELISA (PCSK9-LDLR)
murine PCSK9 = assay: BIAcore SPR
Cyno PCSK9 = assay: BIAcore SPR
Rat PCSK9 = assay: BIAcore SPR
rhesus PCSK9 = assay: BIAcore SPR

Kd [1]: 0.481 nM
IC50 (biotinylated human PCSK9): 1.39 nM
B1: anti-PCSK9 antibody 508.20.84 (antibody, V domains shown)
VH: EVQLVESGGGLVQPGGSLRLSCAASGFTFTGYAIHWVRQAPGKGLEWVARISPANGNTNYADSVKGRFTISADTSKNTAYLQMNSLRAEDTAVYYCARWIGSRELYIMDYWGQGTLVTVSS
VL: DIQMTQSPSSLSASVGDRVTITCRASQDVSTAVAWYQQKPGKAPKLLIYSASFLYSGVPSRFSGSGSGTDFTLTISSLQPEDFATYYCQQSYPAPSTFGQGTKVEIK

Kd (murine PCSK9): 0.135 nM
B2: YW508.20.84 (antibody, V domains shown)
VH: B1 VH
VL: B1 VL

Kd [1]: 0.757 nM
IC50 (biotinylated human PCSK9): 0.92 nM
B3: anti-PCSK9 antibody 508.20.04b (antibody, V domains shown)
VH: B1 VH
VL: B1 VL with S96A

Kd [1]: 0.349 nM
IC50 (biotinylated human PCSK9): 1.05 nM
B5: anti-PCSK9 antibody 508.20.28b (antibody, V domains shown)
VH: B1 VH with G31R, Y32H, A33T, H35N
VL: B1 VL with P93R, A94I, P95Q, S96P

Kd [1]: 0.628 nM
IC50 (biotinylated human PCSK9): 1 nM
B6: anti-PCSK9 antibody 508.20.06 (antibody, V domains shown)
VH: B1 VH
VL: B1 VL with A94S, S96A

IC50 (biotinylated human PCSK9): 15.2 nM
B8: YW508.20b (antibody, V domains shown)
VH: B1 VH
VL: B1 VL with P93T, A94T, S96P

Further lines, the binder ahead of its results:

B4: YW508.20.28b (antibody, V domains shown)
VH: B1 VH with G31R, Y32H, A33T, H35N
VL: B1 VL with P93R, A94I, P95Q, S96P
Kd (murine PCSK9): 0.323 nM

B7: YW508.20.33b (antibody, V domains shown)
VH: B1 VH with T30S, G31S, Y32T
VL: DIQMTQSPSSLSASVGDRVTITCRASQDVSTAVAWYQQKPGKAPKLLIYSASFLYSGVPSRFSGSGSGTDFTLTISSLQPEDFATYYCQQAYPALHTFGQGTKVEIKR
Kd (murine PCSK9): 0.0123 nM
Kd (Cyno PCSK9): 0.0624 nM
Kd (Rat PCSK9): 0.0182 nM
Kd (rhesus PCSK9): 4.09 nM

B9: YW508.20.33b reformatted into human IgG1 having a heavy chain with SEQ ID NO: 35 and a light chain with SEQ ID NO: 36 (antibody, V domains shown)
VH: B1 VH with T30S, G31S, Y32T
VL: B7 VL
Kd [1]: 0.408 nM
IC50 (biotinylated human PCSK9): 1.31 nM

B10: YW508.20.06 (antibody, V domains shown)
VH: B1 VH
VL: B1 VL with A94S, S96A
Kd (murine PCSK9): 0.201 nM

B11: YW508.20.04b (antibody, V domains shown)
VH: B1 VH
VL: B1 VL with S96A
Kd (murine PCSK9): 0.117 nM
